Data taken from patent publication US20220267469A1 (LIPUM, published 2022).

T1: Mouse BSSL, recombinant (mouse, UniProt Q64285 21-599)
T1 construct: Bought (R&D Systems, Cat. no 5658-CE); also called mBSSL; murine BSSL
T1 sequence: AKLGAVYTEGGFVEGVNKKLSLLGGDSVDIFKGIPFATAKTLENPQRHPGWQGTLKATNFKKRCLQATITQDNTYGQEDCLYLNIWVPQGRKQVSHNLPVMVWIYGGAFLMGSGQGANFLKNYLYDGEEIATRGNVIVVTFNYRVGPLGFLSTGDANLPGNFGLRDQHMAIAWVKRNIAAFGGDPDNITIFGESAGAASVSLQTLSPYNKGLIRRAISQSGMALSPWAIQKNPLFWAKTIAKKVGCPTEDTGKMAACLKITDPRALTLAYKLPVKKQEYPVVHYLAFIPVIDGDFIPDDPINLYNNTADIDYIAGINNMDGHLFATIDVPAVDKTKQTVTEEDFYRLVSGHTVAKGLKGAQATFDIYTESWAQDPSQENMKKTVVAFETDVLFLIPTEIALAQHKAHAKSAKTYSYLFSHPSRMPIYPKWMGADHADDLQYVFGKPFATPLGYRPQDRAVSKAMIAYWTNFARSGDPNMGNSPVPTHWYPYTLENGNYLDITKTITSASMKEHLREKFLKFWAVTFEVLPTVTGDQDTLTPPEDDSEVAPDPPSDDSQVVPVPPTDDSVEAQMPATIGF

T2: Human BSSL (bile salt-stimulated lipase), native (human, UniProt P19835 21-753)
T2 sequence: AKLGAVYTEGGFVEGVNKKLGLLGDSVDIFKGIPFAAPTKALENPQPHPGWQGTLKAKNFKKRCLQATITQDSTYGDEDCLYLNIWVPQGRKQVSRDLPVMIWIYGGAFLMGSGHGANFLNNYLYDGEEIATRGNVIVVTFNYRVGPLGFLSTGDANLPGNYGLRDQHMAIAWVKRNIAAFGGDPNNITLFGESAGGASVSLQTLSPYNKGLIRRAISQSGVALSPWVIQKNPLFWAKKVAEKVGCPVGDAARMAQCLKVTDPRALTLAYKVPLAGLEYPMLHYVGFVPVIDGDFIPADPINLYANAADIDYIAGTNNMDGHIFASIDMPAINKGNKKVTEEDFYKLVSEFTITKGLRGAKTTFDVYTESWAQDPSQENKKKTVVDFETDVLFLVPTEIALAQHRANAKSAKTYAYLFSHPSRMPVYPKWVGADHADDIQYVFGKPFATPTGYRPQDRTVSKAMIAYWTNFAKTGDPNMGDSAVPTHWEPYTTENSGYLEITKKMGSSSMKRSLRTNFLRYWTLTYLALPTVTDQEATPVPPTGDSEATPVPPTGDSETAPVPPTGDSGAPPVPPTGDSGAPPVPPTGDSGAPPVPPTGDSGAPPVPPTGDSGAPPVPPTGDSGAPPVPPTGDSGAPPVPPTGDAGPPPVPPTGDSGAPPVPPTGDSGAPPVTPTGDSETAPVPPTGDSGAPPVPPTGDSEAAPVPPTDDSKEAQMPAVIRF

T3: Biotinylated human BSSL (human, UniProt P19835 21-753, Biotinylated on glycosacarides, 30-40 biotin/BSSL)
T3 construct: hBSSL biotinylated in house; also called b-hBSSL; human BSSL-biotin
T3 sequence: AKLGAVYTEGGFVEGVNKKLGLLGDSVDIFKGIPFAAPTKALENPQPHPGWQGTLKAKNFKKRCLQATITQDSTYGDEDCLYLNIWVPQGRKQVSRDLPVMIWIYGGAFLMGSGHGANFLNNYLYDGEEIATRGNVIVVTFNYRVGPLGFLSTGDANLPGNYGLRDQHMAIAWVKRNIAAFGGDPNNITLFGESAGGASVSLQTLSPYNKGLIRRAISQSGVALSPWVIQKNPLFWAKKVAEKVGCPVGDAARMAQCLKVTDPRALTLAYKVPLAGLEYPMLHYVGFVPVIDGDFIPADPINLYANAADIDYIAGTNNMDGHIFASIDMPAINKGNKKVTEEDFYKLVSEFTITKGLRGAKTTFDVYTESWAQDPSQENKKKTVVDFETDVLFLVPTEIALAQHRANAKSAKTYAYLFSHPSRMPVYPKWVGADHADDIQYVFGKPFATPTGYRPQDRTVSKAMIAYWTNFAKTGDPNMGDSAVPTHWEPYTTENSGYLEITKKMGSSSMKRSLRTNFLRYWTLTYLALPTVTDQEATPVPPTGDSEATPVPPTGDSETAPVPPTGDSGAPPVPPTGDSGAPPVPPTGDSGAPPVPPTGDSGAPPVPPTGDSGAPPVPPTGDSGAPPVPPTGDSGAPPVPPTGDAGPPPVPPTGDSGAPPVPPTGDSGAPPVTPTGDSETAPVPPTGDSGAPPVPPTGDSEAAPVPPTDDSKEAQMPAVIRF


Tests used:
Mouse BSSL, recombinant [1] = target: T1, Mouse BSSL, recombinant; assay: SPR steady state, hIgG4 S228P captured by anti-Fab
Summary of the method: (§1)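 hIgG4 S228P captured on an immobilized anti-Fab surface; five BSSL concentrations injected, 1:5 dilutions from 50 nM (human) or from 500 nM (mouse). Human BSSL: single-cycle kinetics, 1:1 fit. Mouse BSSL: KD from steady-state equilibrium response versus concentration. Regeneration with 10 mM glycine-HCl pH 2.1.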

[2] = target: T2, Human BSSL (bile salt-stimulated …); assay: cell-based or functional assay
Biotinylated human BSSL [3] = target: T3, Biotinylated human BSSL; assay: flow cytometry displacement assay; 3.0 ug antibody, 1 ug b-hBSSL
Summary of the method: (§2)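 Antibody (0.5–3.0 μg per reaction) preincubated with 1 μg biotinylated human BSSL in PBS pH 7.4, 30 min at 4 °C, then with human buffy coat 30 min at 4 °C. After erythrocyte lysis/fixation, bound BSSL on CD14+ monocytes detected by labelled streptavidin via flow cytometry.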

[4] = target: T2, Human BSSL (bile salt-stimulated …); assay: cell-based or functional assay; remark: listed apart in the source
Mouse BSSL, recombinant [5] = target: T1, Mouse BSSL, recombinant; assay: SPR steady state, captured by anti-Fab, Absolute Antibody batch
Experimental: (§3) Kinetic parameters of the hIgG4 S228P clones were determined by SPR using BIACORE® T200 (GE Healthcare). An anti-Fab antibody (GE #28958325) was immobilized on a CM5 S sensor chip by primary amine coupling using NHS-EDC chemistry. The hIgG4 antibodies were captured by the anti-Fab antibody, and subsequently, five different concentrations of hBSSL (1:5 dilutions, 0.08-50 nM) or mBSSL (1:2 dilutions, 50-800 nM) were injected over the surface. The sensor chip surface was regenerated with 10 mM glycine-HCl pH 2.1. For binding to human BSSL, single cycle kinetic data was fitted to a 1:1 binding model and kinetic parameters were retrieved using software BlAevaluation. For mouse BSSL, a steady state analysis was performed by plotting the response level at equilibrium against each concentration, and KD values were retrieved by the BlAevalution software.

[6] = target: T2, Human BSSL (bile salt-stimulated …); assay: SPR single cycle kinetics, hIgG4 S228P captured by anti-Fab
Summary of the method: as §1

[7] = target: T2, Human BSSL (bile salt-stimulated …); assay: SPR single cycle kinetics, captured by anti-Fab, Absolute Antibody batch
Experimental: as §3

Biotinylated human BSSL [8] = target: T3, Biotinylated human BSSL; assay: flow cytometry displacement assay; 1.5 ug antibody, 1 ug b-hBSSL
Summary of the method: as §2

Binder	Kd (Mouse BSSL, recombinant [1]) [nM]	BSSL hydrolysis of cholesterol esters, relative value (no antibody = 100%); 0.19 ug antibody [2] [%]	BSSL hydrolysis of cholesterol esters, relative value (no antibody = 100%); 0.38 ug antibody [2] [%]	BSSL hydrolysis of cholesterol esters, relative value (no antibody = 100%); 0.75 ug antibody [2] [%]	BSSL hydrolysis of cholesterol esters, relative value (no antibody = 100%); 1.5 ug antibody [2] [%]	BSSL hydrolysis of cholesterol esters, relative value (no antibody = 100%); 3.0 ug antibody [2] [%]	BSSL hydrolysis of cholesterol esters, relative value (no antibody = 100%); 6.0 ug antibody [2] [%]	percentage reduction of b-hBSSL binding to CD14+ monocytes (Biotinylated human BSSL [3]) [%]	BSSL hydrolysis of triglycerides, relative value (no antibody = 100%); 0.19 ug antibody [4] [%]	BSSL hydrolysis of triglycerides, relative value (no antibody = 100%); 0.38 ug antibody [4] [%]	BSSL hydrolysis of triglycerides, relative value (no antibody = 100%); 0.75 ug antibody [4] [%]	BSSL hydrolysis of triglycerides, relative value (no antibody = 100%); 1.5 ug antibody [4] [%]	BSSL hydrolysis of triglycerides, relative value (no antibody = 100%); 3.0 ug antibody [4] [%]	BSSL hydrolysis of triglycerides, relative value (no antibody = 100%); 6.0 ug antibody [4] [%]	Kd (Mouse BSSL, recombinant [5]) [nM]	Kd [6] [nM]	Kd [7] [nM]	percentage reduction of b-hBSSL binding to CD14+ monocytes (Biotinylated human BSSL [8]) [%]
S-SL048-46 hIgG4 S228P (antibody, V domains shown, also called clone 46; mAb46) VH: QVQLVQSGAEVKKPGASVKVSCKASGYTFTSYNMHWVRQAPGQGLEWMGVINPGDGATSYNQKFQGRVTMTRDTSTSTVYMELSSLRSEDTAVYYCARDYYGSSPLGYWGQGTLVTVSS VL: DIQMTQSPSSLSASVGDRVTITCRASSSISYLNWYQQKPGKAPKLLIYAASSLASGVPSRFSGSGSGTDFTLTISSLQPEDFATYYCHQRSSSPTFGQGTKLEIKR	24	95.7	99	97.6	88.3	93.5	97.7	61	105	123	121	113	119	126	55	3.7	3.8	43
S-SL048-116 hIgG4 S228P (antibody, V domains shown, also called mAb116) VH: QVQLVQSGAEVKKPGASVKVSCKASGYTFTSYNMHWVRQAPGQGLEWMGVINPGDGATSYAQKFKGRVTMTRDTSTSTVYMELSSLRSEDTAVYYCARDYYGSSPLGYWGQGTLVTVSS VL: DIQMTQSPSSLSASVGDRVTITCRASPSISYMNWYQQKPGKAPKLLIYATSSLASGVPSRFSGSGSGTDFTLTISSLQPEDFATYYCHQRSSSPTFGQGTKLEIKR	52	104	107	102	103	107	107	64	105	112	100	96.2	106	108	40	0.6	0.5	58
S-SL048-118 hIgG4 S228P (antibody, V domains shown, also called clone 118; mAb118) VH: QVQLVQSGAEVKKPGASVKVSCKASGYTFTSYNMHWVRQAPGQGLEWMGVINPGDGATSYAQKFKGRVTMTRDTSTSTVYMELSSLRSEDTAVYYCARDYYGSSPLGYWGQGTLVTVSS VL: DIQMTQSPSSLSASVGDRVTITCSASPSISYMNWYQQKPGKAPKLLIYATSSLPSGVPSRFSGSGSGTDFTLTISSLQPEDFATYYCHQRSSSPTFGQGTKLEIKR	95	105	103	110	105	106	102	58	107	106	102	88	93.9	119	70	0.9	0.5	23
